Laboratory results published in patent publication US11607466B2, “Tumor and immune cell imaging based on PD-L1 expression” (The Johns Hopkins University, priority 2016, dated 2023).
Several values for one entry are separate records, joined by “and”; a condition that tells them apart may be missing. Equal values may be shown once.

Legend:
PD-L1 in MDAMB231 tumors [1] = target: T1, PD-L1 in MDAMB231 tumors (Homo sapiens, UniProt Q9NZQ7); test: Tumor PD-L1 engagement by PD-L1 mAbs measured with [64Cu]WL12, MDAMB231 xenografts; type: in vivo; settings: AtzMab 20 mg/kg, AveMab 10 mg/kg, DurMab 10 mg/kg, 24 h prior to tracer
T1 construct: MDAMB231 breast cancer cells, which naturally express PD-L1; endogenous in cells; host or cells: MDAMB231 (ATCC); as xenografts in NSG mice for the in vivo units
T1 sequence (Q9NZQ7 19-290): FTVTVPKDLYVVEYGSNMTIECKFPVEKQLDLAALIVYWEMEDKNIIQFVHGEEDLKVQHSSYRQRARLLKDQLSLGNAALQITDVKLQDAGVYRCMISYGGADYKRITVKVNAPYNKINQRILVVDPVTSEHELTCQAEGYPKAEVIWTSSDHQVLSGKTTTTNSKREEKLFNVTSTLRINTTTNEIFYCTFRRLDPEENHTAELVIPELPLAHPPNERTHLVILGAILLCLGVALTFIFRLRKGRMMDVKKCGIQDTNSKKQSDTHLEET

PD-L1 in hPD-L1 tumors = target: T2, PD-L1 in hPD-L1 tumors (Homo sapiens, UniProt Q9NZQ7); test: Tumor PD-L1 engagement by AtzMab measured with [64Cu]WL12, hPD-L1/CHO tumors; type: in vivo, mouse; settings: AtzMab 20 mg/kg 24 h prior to tracer
T2 construct: expressed in transfected cells; grown as tumours in NSG mice for the in vivo units
T2 sequence (Q9NZQ7 19-290): as above
Source text: 2.1.3.3 PD-L1 therapeutic antibody accumulation in the tumors by PD-L1 PET: While evaluating the specificity of WL12 for PD-L1, it was discovered that WL12 competes with AtzMab to the same binding site on PD-L1. This provides a novel and previously unanticipated means to evaluate AtzMab therapy at tumor sites, where it is needed, using PD-L1-directed PET. Improved understanding of the distribution of PD-L1 antibodies in tumors may impact clinical antibody dosing and therapeutic monitoring. Therefore, the ability of [^64Cu]WL12-PET to assess AtzMab binding to PD-L1 within tumors was tested. Accumulation of radioactivity in hPD-L1 tumors was reduced by 80% in mice injected with AtzMab (20 mg/kg) as quantified by [^64Cu]WL12-PET and biodistribution studies (FIG. 21A, FIG. 21B, and FIG. 21C). […] The applicability of this approach was extended to cancer cell lines with native increase in PD-L1 expression.
To assess the effect of a single dose of AtzMab on targeting different PD-L1 levels in the tumors, PET and biodistribution studies were performed in tumors derived from the CHO-hPDL1 cell line, which has four- to ten-fold higher PD-L1 expression than NSCLC cells (FIG. 36). […] Those observations were confirmed by strong and week immunoreactivity observed in hPD-L1 and CHO tumors, respectively (FIG. 35I).

human PD-L1 = human PD-L1 (Homo sapiens, UniProt Q9NZQ7); settings: read-out: dissociation constant (Kd), human PD-L1; cited from earlier work
Sequence of human PD-L1 (Q9NZQ7 19-290): as above

[2] = target: T3, PD-L1 in HCC827, H226, hPD-L1 and MDAMB231 cells (Homo sapiens, UniProt Q9NZQ7); test: [64Cu]WL12 binding to PD-L1-positive cells in the presence of 60 nM mAbs; type: cell-based; settings: 60 nM mAb vs PBS control
T3 construct: Each of which naturally expresses PD-L1; endogenous in cells; host or cells: HCC827, H226, MDAMB231 (endogenous) and CHO-hPD-L1 (stably transfected)
T3 sequence (Q9NZQ7 19-290): as above
Procedure: Non-interacting residues are shown in gray. […] Mean fluorescence intensities were determined by flow cytometry.
HCC827 and H226 non-small cell lung cancer (NSCLC) cells also were tested.

PD-L1 in hPD-L1 cells = target: T4, PD-L1 in hPD-L1 cells (Homo sapiens, UniProt Q9NZQ7); test: In vitro binding of [64Cu]WL12 to hPD-L1 and CHO cells; type: cell-based; settings: compared with WL12
T4 construct: expressed in transfected cells; grown as tumours in NSG mice for the in vivo units
T4 sequence (Q9NZQ7 19-290): as above
Procedure: 1.4.9. […] After incubation, cells were washed three times with cold PBS prior to counting on an automated gamma counter (1282 Compugamma CS, Pharmacia/LKBNuclear, Inc., Gaithersburg, Md.). […] Mean fluorescence intensity values were correlated with % incubated dose (% ID) uptake. All the cell uptake studies were performed in triplicate for each cell line and repeated three times.

PD-L1 in MDAMB231 tumors [3] = target: T1, PD-L1 in MDAMB231 tumors; test: Tumor PD-L1 engagement by PD-L1 mAbs measured with [64Cu]WL12, MDAMB231 xenografts; type: in vivo
Procedure: To evaluate the effect of dose on tumor PD-L1 occupancy at the tumor, mice bearing MDAMB231 tumors were injected with escalating doses of AtzMab from 0.009 to 24 mg/kg body weight.

[4] = target: T5, PD-L1 in HCC827 xenografts (Homo sapiens, UniProt Q9NZQ7); test: Tumor PD-L1 engagement by AtzMab measured with [64Cu]WL12, HCC827 xenografts; type: in vivo; settings: AtzMab 20 mg/kg for 24 h, vs saline controls
T5 construct: Each of which naturally expresses PD-L1; endogenous in cells; host or cells: HCC827 and H226 NSCLC cells; as xenografts in NOD scid gamma mice for the in vivo units
T5 sequence (Q9NZQ7 19-290): as above
Source text: (§1) 3.3.2 Quantifying Tumor PD-L1 engagement by AtzMab. To evaluate PD-L1 engagement by the therapeutic mAbs at the tumor non-invasively in vivo, NSCLC xenograft models were studied. Those models were selected because nearly 50% of NSCLCs are PD-L1-positive and PD-L1 IHC is used as a predictive biomarker in patients with NSCLC undergoing immune checkpoint therapy (Mansfield, et al., 2016). […] There is a clear reduction in the accumulation of radioactivity in tumors of AtzMab-treated mice, indicating reduced levels of available PD-L1 sites, compared to treated controls (FIG. 35A and FIG. 35B). […] PD-L1 expression levels were confirmed by PD-L1 IHC of the xenografts (FIG. 35C and FIG. 35F).

PD-L1 in MDAMB231 tumors [5] = target: T1, PD-L1 in MDAMB231 tumors; test: Effect of AtzMab dose on tumor PD-L1 occupancy, inhibitory sigmoidal Emax model of [64Cu]WL12 % ID/g; type: in vivo
Procedure: To evaluate the effect of dose on tumor PD-L1 occupancy at the tumor, mice bearing MDAMB231 tumors were injected with escalating doses of AtzMab from 0.009 to 24 mg/kg body weight. […] At the 0.6 and 3.2 mg/kg dose, there was a proportionate decrease in signal intensity in the tumors indicating—for the 3.2 mg/kg dose—a near 100% target engagement at the tumor by the antibody.
The accumulated radioactivity (% ID/g) in the tumors was then used to fit an inhibitory sigmoidal E. model.

PD-L1 in H226 xenografts = target: T6, PD-L1 in H226 xenografts (Homo sapiens, UniProt Q9NZQ7); test: Tumor PD-L1 engagement by AtzMab measured with [64Cu]WL12, H226 xenografts; type: in vivo; settings: AtzMab 20 mg/kg for 24 h, vs saline controls
T6 construct: Each of which naturally expresses PD-L1; endogenous in cells; host or cells: HCC827 and H226 NSCLC cells; as xenografts in NOD scid gamma mice for the in vivo units
T6 sequence (Q9NZQ7 19-290): as above
Source text: as §1

[6] = Stroh, et al., 2017; cited from earlier work

[64Cu]WL12 uptake in MDAMB231 xenografts (PD-L1 in MDAMB231 tumors [1]): significantly reduced
reduction of [64Cu]WL12 accumulation in hPD-L1 tumors (PD-L1 in hPD-L1 tumors): 80% and 77%
[64Cu]WL12 binding to PD-L1-positive cells [2]: inhibited
potency at inhibiting [64Cu]WL12 binding (PD-L1 in hPD-L1 cells): more potent than WL12
[64Cu]WL12 uptake compared to untreated controls, PET (PD-L1 in MDAMB231 tumors [3]; AtzMab 0.06 mg/kg): no difference
[64Cu]WL12 tumor uptake at 120 h compared to 24 h (PD-L1 in MDAMB231 tumors [3]; AtzMab 0.6 mg/kg): significant increase
target engagement at the tumor (PD-L1 in MDAMB231 tumors [3]; AtzMab 3.2 mg/kg): ~100%
[64Cu]WL12 tumor uptake at 120 h compared to 24 h (PD-L1 in MDAMB231 tumors [3]; AtzMab 10 or 20 mg/kg): no significant temporal difference
PD-L1 occupancy at 24 and 120 h (PD-L1 in MDAMB231 tumors [3]; atezolizumab 10 mg/Kg): complete blockade of PD-L1
less uptake of [64Cu]WL12 in tumors vs saline controls (PD-L1 in MDAMB231 tumors [3]; mAb 24 h prior, 120 min after tracer injection, ex vivo): approximately 60%
reduction in [64Cu]WL12 % ID/g, HCC827 xenografts [4]: 47%
ID90 (PD-L1 in MDAMB231 tumors [5]; 90% of Imax): 0.87 mg/kg
ID96 (PD-L1 in MDAMB231 tumors [5]; 96% of Imax): 1.19 mg/kg
ID50, dose for 50% of the maximum PD-L1 engagement in the tumor (PD-L1 in MDAMB231 tumors [5]; MDAMB231 tumors, 24 h after dose): 0.43 mg/kg and 0.43 (10%) mg/kg
Imax (PD-L1 in MDAMB231 tumors [5]; maximum fractional decrease in free PD-L1 ligands, mean (% RSE)): 0.57 (3%)
Hill coefficient (PD-L1 in MDAMB231 tumors [5]; mean (% RSE)): 3.12 (19%)
Residual error (PD-L1 in MDAMB231 tumors [5]; mean (% RSE)): 0.44 (14%) % ID/g
Baseline free PD-L1 ligands (PD-L1 in MDAMB231 tumors [5]; mean parameter value (% relative standard error)): 5.91 (1%) % ID/g
[64Cu]WL12 accumulation in tumors vs antibody dose (PD-L1 in MDAMB231 tumors [5]; various doses, 24 h prior, biodistribution 2 h after tracer): reduced with increasing antibody dose
reduction in [64Cu]WL12 % ID/g, H226 xenografts (PD-L1 in H226 xenografts): 34%
Substance: AtzMab: therapeutic PD-L1 antibody Atezolizumab
Kd (human PD-L1): 0.43 nM
PD-L1 occupancy at 24 and 120 h (PD-L1 in MDAMB231 tumors [3]; atezolizumab 1 mg/Kg): increased accumulation of [^64Cu]WL12 can be seen at 120 h but not at 24 h
expected average plasma concentration (PD-L1 in MDAMB231 tumors [5]; at ID50, assuming Vss 50 mL/kg): 59 nM and 8.6 mcg/mL
expected average plasma concentration (PD-L1 in MDAMB231 tumors [5]; at ID90, assuming Vss 50 mL/kg): 120 nM and 17.4 mcg/mL
expected average plasma concentration (PD-L1 in MDAMB231 tumors [5]; at ID96, assuming Vss 50 mL/kg): 164 nM and 23.8 mcg/mL
linearity of pharmacokinetics [6]: non-linear PK below 0.6-1 mg/kg and linear PK above 1 mg/kg dose
